We go through 23 sequences from the DeepSol protein solubility set.

The data set in a line: soluble on expression in E. coli; label from the status in PepcDB or PDB records.
Consider “MGSDKIHHHHHHMTVDSPILTDTLVVGGGQAGIAMSEHLTGQGVPHIVLERDRIAQRWRTGRWDSLVANGPAWHDRFPGLEFEGLDPDGFASKDAVADYLEAYARKFNAPIRTGVEVVRAERNGGRYGFTVETSAGTYEAQRIVVATGPFQRPVIPAIAPRDPALTQIHSADYRNPGQLPEGAVLVIGAGSSGVQIADELQRAGREVYLSVGPHDRPPRRYRGRDFCWWLGVLGLWDQETVQPGREHVTIAVSGTDGGRTIEFRALAHQGITLVGVTKSFRDGVVAFENDLAENVARGDANHFALLDAADAYIARNGLSLPDEPQARRVPPDPACMTEPILQLDLAAANVTSIIWATGYAAEYGWLNVDAFDANGKPRHQRGVSSEPGVYFLGLPWLSRRGSAFLWGVWHDAKHIAGHIAMQRNYLSYPDFGQSQQ”, for which the “soluble on expression in E. coli” value is on record as “not soluble”.
Then “MGSSHHHHHHSSGLVPRGSHMRLCHPCPWEWTFFQGNCYFMSNSQRNWHDSITACKEVGAQLVVIKSAEEQNFLQLQSSRSNRFTWMGLSDLNQEGTWQWVDGSPLLPSFKQYWNRGEPNNVGEEDCAEFSGNGWNDDKCNLAKFWICKKSAASCSRDEEQFLSPAPATPNPPPA”, with “soluble”.
Take “MHHHHHHGMASMTARPLSELVERGWAAALEPVADQVAHMGQFLRAEIAAGRRYLPAGSNVLRAFTFPFDNVRVLIVGQDPYPTPGHAVGLSFSVAPDVRPWPRSLANIFDEYTADLGYPLPSNGDLTPWAQRGVLLLNRVLTVRPSNPASHRGKGWEAVTECAIRALAARAAPLVAILWGRDASTLKPMLAAGNCVAIESPHPSPLSASRGFFGSRPFSRANELLVGMGAEPIDWRLP”: the “soluble on expression in E. coli” value is reported as “soluble”.
As to “TTILVVRRNGQTVMGGDGQVTFGSTVLKGNARKVRKLGEGKVLAGFAGSVADAMTLFDRFEAKLREWGGNLTKAAVELAKDWRTDRVLRRLEALLLVADKENIFIISGNGEVIQPDDDAAAIGSGGPYALAAAKALLRNTDLSAREIVEKAMTIAGEICIYTNQNIVIEEV”, the “soluble on expression in E. coli” value is listed as “soluble”.
Turning to “MPYPIEEKLVIGVASSALFDLSVSDDIYQTQGVEAYRQHQEQNLDEPFPRGVALPFIRRFLSINKAFPDQLPVEVVLLSRNSPETGLRVFRSISHYQLDITRAAFMSGRSPYEYIPAFNASLFLSANEEDVQKAIDANYPAGRVLPTRIYDDEIDTELRVAFDFDGVIADDEAESVYKRNDNLDDFQEHERMHKSTPHSPGPLADLYRKLSRIRMLEDRKLAEDPTYQRILRIAIVTARNAPSHERVVTTLKDWGVSPDECFFLGGMDKPRVLSILKPHVFFDDQRTHLQSPAGNLPMVHVPFGVANRVRSPQAPDVKQDQLPISASSCMPLEHHHHHH”, the “soluble on expression in E. coli” value is recorded as “soluble”.
Under “MVEDTKTQMAAAISATLVFAARRRPLFCSLSSSSSSKPNTRKLVLYSKPGCCLCDGLKEKLHAAFTLSTGPDSLNDVTLQVRDITTNPEWERAYQYEIPVLAKENSDGKEEVLPRLSPRLSAELIQKKLLAAFS” stands “not soluble”; under “MNKPTLGIDLDTTLNTLDREWVKRYNEIYKDKLLPSDIKGWDIENYVKPECGKKIYDILKEPHFFRNLGVQPFAETALEELTSIFNIYIVSATHYKVCEDKGNWIKEKFPFISYQNIIFCHNKGLVHLDILIDDNPLNLENFKGNKILFDAHHNKSENRFVRARDWYEAKALCESLKDFL”, “not soluble”; under “METNMTFVLKEFDALKSHFNDTVKIILQREKKDKIEDLPNPRKEELQFLTAVLNQLEAKIDELKPRSLASYVHVFYGAMLLVCKDVENNLRVMEKKENSLLFTRLMDGMGISDENIPTSEQNIMFYRGLNKFLNFIYESNDSRKGLKKEHFLQVLSLKKIYSLAKLSYEQEEAAENNALAKLTADGKTKANANSFHVEKPIDSSIVEQFKSWDEMKGALHQLILDELSDKNVAKISALSQARSAQLKFLQTMAEQLDKIPNQSLEPSEKMAILAGAMYIVRGQIAQEYGKDPLSNDKISATVIHTGLSTILHANADCCEDKEVLIAAANKFIRHMVIERPEQSNKKITKESVRENNMFSDIAGFQLISVLTLIQNMIKTCRTDAIEACVTKRKEELEALKPKKEGYSIASSVTGYVGSWFKKAPSMSEEDEEDDLKDQNTAEETSKPTV”, “not soluble”.
As for “MVTTLTPVICESAPAAAASYSHAMKVNNLIFLSGQIPVTPDNKLVEGSIADKAEQVIQNIKNVLEASNSSLDRVVKVNIFLADINHFAEFNSVYAKYFNTHKPARSCVAVAALPLGVDMEMEAIAAERD”, the “soluble on expression in E. coli” value is given as “soluble”.
Regarding “MVSPILANIALNGIESIHRSKAKGQIIEPSVRYADDMVIILKPKDNAIEILERISEFLRKRGMQVSQKKTKITAATDGFDFLGWHFKVQKNGKFKSTPSVDNFKAFRKKVKHIVNNSNYGSIVKAQKLSPIVRGWRNYHKFCKMDGSKHSLWFLNHRTYTVFTKESKHTRQSSEKLIKKAFPLVPNSENKHVMVQGIKSPYDGNLTCWSKRNSKLYDGHTSKALTKQNHKCASCGLKFIGEERVHLHHRDGNHDNWKPNNLEALHESCHDYRHMSKTERLEHHHHHH”, the “soluble on expression in E. coli” value is reported as “not soluble”.
Consider “MSEFTQDTVQKPIDELVTWVKQYDFSLNLPTERLAFLLAIAVLSNERFDEELGEGELHDAFAIVTRLFAESGEASAFRANNAINDLVKQRLLSRFTSEMTEGASIYRLTPLAIGITDYYVRHREFSKLKLSIQLSMVADEMAKAVESAQQGGSVAHWRKNVFGVLKYSVSEIFDRIDLNQRVMDEQQQSVKEQIADLLNKDWRDAINNCEALLSETSATLRELQDTLQAAGDELQTQILDIQECVYGDLELDFIEETLSALQMKLDRITSWGQQSIDLWIGYDRHVHKFIRTAIDMDQNRAFSQRLRQSMNDYFEQPWYLTYADAERLSDLRDETLTLRDEEVTGHVPTEVEYEELQQVNDELAQRIGDMLKVHKEQGAAIDLALVLRDYLASHPRTHHFDLARMVVDQAVRLGYSESDYRAIQPDWTAINDFGAKVQANVIDRYLEHHHHHH”, for which the “soluble on expression in E. coli” value is reported as “soluble”.
Then “MVSKKKALEMIDVIANMFPDAECELKHDNPFELTIAVLLSAQCTDVLVNRVTTELFKKYKTPEDYLAVSDEELMNDIRSIGLYRNKAKNIKKLCQSLIDQFNGEIPQTHKELESLAGVGRKTANVVMSVAFDEPSLAVDTHVERVSKRLGINRWKDNVRQVEDRLCSVIPRDRWNRSHHQLIFFGRYHCLARKPKCDICPLLEDCREGQKRYKASLKEA”, with “not soluble”; and “MKKPIILRKRYIPDEVIDISGDELVFRSEDLLITKWNPIRKRPDISGGISFTFLKEGYKASKFFGPSGEFKYWYCDIIKVLYDEDEDKYTLVDLLLDVKIMPDGRVEVLDADELAEALKNNIISKEEACMCLSILDKILKMAYSGKFPPEICLKDY”, with “soluble”.
Under “MIHLYDAKSFAKLRAAQYAAFHTDAPGSWFDHTSGVLESVEDGTPVLAIGVESGDAIVFDKNAQRIVAYKEKSVKAEDGSVSVVQVENGFMKQGHRGWLVDLTGELVGCSPVVAEFGGHRYASGMVIVTGKGNSGKTPLVHALGEALGGKDKYATVRFGEPLSGYNTDFNVFVDDIARAMLQHRVIVIDSLKNVIGAAGGNTTSGGISRGAFDLLSDIGAMAASRGCVVIASLNPTSNDDKIVELVKEASRSNSTSLVISTDVDGEWQVLTRTGEGLQRLTHTLQTSYGEHSVLTIHTSKQSGGKQASGKAIQTVIKNDELESVLRRLTSN” stands “soluble”; under “LRARTYGEGGFRVERVLEERPAFTRVQFSYLSDGLRVHGFANLPKGRGPFPVVVVLHGYVEPSRYRLLAYTTPYADFLAERGYLVLHPNFRGHPPSEGAPAQGLRHVYAVDVLNLLAEVRRGAFPQADPARIALFGHSMGGGVAQIVSLVDPGLKGAVLYGSMSGDERRNLERIRYWSGGSRGQELFALSPEVLRQASAWTYLAELSVPYSVHHGTQDAQVPPEWSWELCRRLKALKKPVECFSYPGGHLFRGEVDRVFRERVLAFLGRVL”, “soluble”; under “AHHHHHHASAKWVCKICGYIYDEDAGDPDNGISPGTKFEELPDDWVCPICGAPKSEFEKLEDGSRRMDKVDLQLIKILSQNSRLTYRELAEMLGTTRQRVARKVDKLKKLGIIRKFTIIPNLEKLNYMYAILLIKVKATENIYQVAKVLKDHEDVKILELGVGKYNIIAHVLVPKDIKKAQEKVNDVIKEINGIEDLEVEFVSDIPKFELL”, “soluble”.
Regarding “MAMNVTEIVLKKPVTAHNEMLHVLELREPTYDEIEALGFPFIISGEGSIKLDSQVALKYIPLLAGIPCSSAAQMAKLDIFKTSMQILRFFTQSETGSTSGNDSTMLPGSGN”, the “soluble on expression in E. coli” value is “not soluble”.
As to “SQNRVPSSRTVSYFVAKPSSSEMEKLQLGPEDSILRMERIRFADDIPICFEVASIPYSLVSQYGKSEITNSFYKTLEAKSGHKIGHSNQTISAVQASEQIAEYLEIKRGDAILRVRQVSYFENGLPFEYVRTQYAGSRFEFYLEK”, the “soluble on expression in E. coli” value is recorded as “soluble”.
For the sequence “QGHMRATNVTYQAHHVSRNKRGQVVGTRGGFRGCTIWLTGLSGAGKTTVSMALEEYLVCHGIPCYTLDGDNIRQGLNKNLGFSPEDREENVRRIAEVAKLFADAGLVCITSFISPYTQDRNNARQIHEGASLPFFEVFVDAPLHVCEQRDVKGLYKKARAGEIKGFTGIDSEYEKPEAPELVLKTDSCDVNDCVQQVVELLNERDILP”, the “soluble on expression in E. coli” value is on record as “soluble”.
As to “MRITASLRTFCHLSTPHSDSTTSRLWIDEVTAVARQRDRDSFMRIYDHFAPRLLRYLTGLNVPEGQAEELVQEVLLKLWHKAESFDPSKASLGTWLFRIARNLYIDSVRKDRGWVQVQNSLEQLERLEAPVDRTLDYSQRQEQQLNSAIQNLPTDQAKVLRMSYFEALSHREISERLDMPLGTVKSCLRLAFQKLRSRIEES”, the “soluble on expression in E. coli” value is given as “not soluble”.
On to “MQTDIHDEPVNLGFGVQFEPDDLYRLRSQFLPLGKIGGKPSWLNPKNLPKSADLLCNVCEKPLCFLMQVSANGGINDPPHAFHRSLFLFVCRNPSCSRTNDAANLKAFRCQLPRANDYYSFDGPMDPDLDGDVADPRAPADGPGLCRICGCSAAKKCAKCQVARYCSQAHQVIDWPAHKLECAKAATDGSITDEPKNPRNAFCFKEFGVEIDQEYMPANLFDGLSDDEGDEEEEEGNDEDETEEEKKARIREFEKFVKENKGKNADMTKEDLDEATAEQPKDIDFDKFNRLVNLQPDQIIRYKRYGQPLRATGLSELPEVVEPCELCGAPRRFEMQLMPHLLSLIDVDAIGQSIDWASVYVYTCSASCQIADDGYAKEFVAKQDFL”, for which the “soluble on expression in E. coli” value was “not soluble”.
For “MGSDKIHHHHHHSDIATSVTQGGEQRLADGGYFELGASVYGTNQLDIRQTEHESIQPSLLISGMYQYKGLFAEMVHQSQDGINFGINLWSSNNWSLDLLAVNYQGSAGRSENTELSQLDEDGRNAYLMETDSIFIGAGFRVTRYWDDHYVFQYRIVSDYFDDQGISTTARLGKSWQVRNWNFHALASIEYASTKLSRNLFGVESMEATELFPEYRPSSAVTYGMELGVAYPLSEKLVFRTVYRLNVLSKEITASPFNQADYGSFFNASFSYVF”, the “soluble on expression in E. coli” value was “not soluble”.
“MSTSSVRFAFRRFWQSETGPKTVHFWAPTLKWGLVFAGFSDMKRPVEKISGAQNLSLLSTALIWTRWSFVIKPRNILLASVNSFLCLTAGYQLGRIANYRIRNGDSISQLCSYILSGADESKKEITTGR”: the “soluble on expression in E. coli” value is given as “not soluble”.
